# Laboratory results: patent publication US20230374127A1 (LG CHEM, published 2023)
# Molecular target: T1, human LILRB1 protein (LILRB1-His, RnD systems Cat. No. 8989-T2) (human, UniProt Q8NHL6 24-458, limits assumed)
# T1 construct: Bought protein; also called LILRB1 antigen; the antigen, LILRB1; not shown: His tag
# Experiment: SPR, Biacore T200; antibody captured by anti-human IgG (Fc), LILRB1-His injected 25-400 nM
# Protocol: The binding affinities of the 19 antibodies, which were selected in Example 3, to the antigen, LILRB1, were measured using Biacore T200 (GE healthcare). An anti-human IgG (Fc) antibody (GE healthcare, Cat. No. BR-1008-39, final concentration of 25 μg/mL) was flowed at the flow rate of 5 μL/min for 360 seconds to be immobilized at 5000-7000 RU on Series S Sensor Chip CM5 (GE healthcare, Cat. No. BR-1005-30) using Amine Coupling Kit (GE healthcare, Cat. No. BR-1000-50).
# T1 sequence (Q8NHL6 24-458 limits assumed): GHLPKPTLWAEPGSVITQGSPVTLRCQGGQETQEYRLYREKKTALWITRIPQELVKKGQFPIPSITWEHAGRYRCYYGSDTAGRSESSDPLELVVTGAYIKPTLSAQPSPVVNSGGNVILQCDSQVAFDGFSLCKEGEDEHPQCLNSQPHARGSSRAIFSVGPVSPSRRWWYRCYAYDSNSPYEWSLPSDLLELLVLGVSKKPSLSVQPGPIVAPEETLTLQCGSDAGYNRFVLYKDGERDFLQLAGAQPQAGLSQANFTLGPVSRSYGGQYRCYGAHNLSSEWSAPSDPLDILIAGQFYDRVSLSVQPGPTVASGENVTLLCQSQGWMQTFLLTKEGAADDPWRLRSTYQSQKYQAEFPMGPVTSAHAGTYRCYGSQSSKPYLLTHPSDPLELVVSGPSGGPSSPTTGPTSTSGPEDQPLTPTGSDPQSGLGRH
binder,measurement,value
"anti-LILRB1 antibody No. 10 (antibody, human IgG4 S228P, kappa, F234A L235A, V domains shown, Human IgG4 / kappa, expressed in ExpiCHO-S cells; also called clone 10) VH: QVQLVQSGAEVKKPGSSVKVSCKASGGTFSSHYMHWVRQAPGQGLEWMGWISPYLGSTNYAQKFQGRVTITADESTSTAYMELSSLRSEDTAVYYCARDETGSTYGAFDYWGQGTLVTVSS VL: DIQMTQSPSSLSASVGDRVTITCRASQSISNYLNWYQQKPGKAPKLLIYAASNLQSGVPSRFSGSGSGTDFTLTISSLQPEDFATYYCQQSYSFPFTFGQGTKVEIKR",Kd,24.1 nM
same,koff,0.000298 s⁻¹
same,kon,12300 M⁻¹ s⁻¹
